Measurements reported in paper PMC12746902, “Pathogenic Gαo Mutants Drive Dominant GPCR Coupling in GNAO1 Encephalopathies” (The FASEB Journal, 2025).

T1: M2 muscarinic acetylcholine receptor with C-terminal split-YFP fragment YN (M2R-YN) (UniProt P08172 1-466)
T1 sequence (looked up): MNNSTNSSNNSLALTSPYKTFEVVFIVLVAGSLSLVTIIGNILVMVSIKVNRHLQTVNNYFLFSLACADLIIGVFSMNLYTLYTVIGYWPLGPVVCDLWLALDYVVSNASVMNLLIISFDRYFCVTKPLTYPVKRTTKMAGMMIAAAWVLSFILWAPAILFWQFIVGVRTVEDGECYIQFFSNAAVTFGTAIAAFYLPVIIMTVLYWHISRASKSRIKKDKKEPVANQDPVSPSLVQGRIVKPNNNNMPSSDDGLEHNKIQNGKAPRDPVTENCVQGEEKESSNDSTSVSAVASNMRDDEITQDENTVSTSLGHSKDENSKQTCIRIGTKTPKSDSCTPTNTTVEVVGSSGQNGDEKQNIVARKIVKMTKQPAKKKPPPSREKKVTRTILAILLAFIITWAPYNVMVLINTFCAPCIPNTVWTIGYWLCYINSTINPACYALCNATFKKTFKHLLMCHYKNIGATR


Experiments:
[1] = target: M2 muscarinic acetylcholine receptor with C-terminal split-YFP fragment YN (M2R-YN) (UniProt P08172)
[2] = target: M2 muscarinic acetylcholine receptor with C-terminal split-YFP fragment YN (M2R-YN) (UniProt P08172); remark: listed apart in the source
[3] = target: T1, M2 muscarinic acetylcholine receptor …; assay: cell-based or functional assay

Sequence of Gαo ins4A (four-alanine insertion in the C-terminal α5-helix) with internal split-YFP fragment YC at Gly92 (P09471 whole entry, the tested form may be a part): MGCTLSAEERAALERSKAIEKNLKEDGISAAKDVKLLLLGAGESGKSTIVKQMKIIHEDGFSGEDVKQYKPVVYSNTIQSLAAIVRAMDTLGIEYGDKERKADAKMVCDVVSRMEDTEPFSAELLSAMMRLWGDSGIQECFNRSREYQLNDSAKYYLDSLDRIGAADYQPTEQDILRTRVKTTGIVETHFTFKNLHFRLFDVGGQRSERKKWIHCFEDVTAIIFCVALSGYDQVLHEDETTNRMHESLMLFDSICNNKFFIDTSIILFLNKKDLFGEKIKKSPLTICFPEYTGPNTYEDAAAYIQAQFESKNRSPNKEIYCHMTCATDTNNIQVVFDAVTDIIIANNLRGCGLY

Molecule	reduction of ACh-mediated phosphorylation (pT307/pS309 relative to total receptor) of immunoprecipitated GFP-M2R with co-expressed UNTAGGED Gαo ins4A, 100 μM ACh for 5 min [1] [%]	reduction of ACh-mediated M2R phosphorylation (pT307/pS309 relative to total M2R) in immunoprecipitated split-YFP complexes, 100 μM ACh for 5 min [2] [%]	reduction of ACh-mediated phosphorylation (pT307/pS309 relative to total receptor) of immunoprecipitated GFP-M2R with co-expressed UNTAGGED Gαo insPQ, 100 μM ACh for 5 min [3] [%]
Gαo ins4A (four-alanine insertion in the C-terminal α5-helix) with internal split-YFP fragment YC at Gly92 (from UniProt P09471 1-354) (natural protein)	95	> 90	–
Gαo T241_N242insPQ with internal split-YFP fragment YC at Gly92 (natural protein, UniProt P09471 1-354, looked up) MGCTLSAEERAALERSKAIEKNLKEDGISAAKDVKLLLLGAGESGKSTIVKQMKIIHEDGFSGEDVKQYKPVVYSNTIQSLAAIVRAMDTLGIEYGDKERKADAKMVCDVVSRMEDTEPFSAELLSAMMRLWGDSGIQECFNRSREYQLNDSAKYYLDSLDRIGAADYQPTEQDILRTRVKTTGIVETHFTFKNLHFRLFDVGGQRSERKKWIHCFEDVTAIIFCVALSGYDQVLHEDETTPQNRMHESLMLFDSICNNKFFIDTSIILFLNKKDLFGEKIKKSPLTICFPEYTGPNTYEDAAAYIQAQFESKNRSPNKEIYCHMTCATDTNNIQVVFDAVTDIIIANNLRGCGLY	–	–	30
